Results reported in the DeepSol protein solubility set.

Test: soluble on expression in E. coli; label from the status in PepcDB or PDB records

Row | Sequence | soluble on expression in E. coli
1 | MGHHHHHHSHMWQAISRLLSEQLGEGEIELRNELPGGEVHAAWHLRYAGHDFFVKCDERELLPGFTAEADQLELLSRSKTVTVPKVWAVGADRDYSFLVMDYLPPRPLDAHSAFILGQQIARLHQWSDQPQFGLDFDNALSTTPQPNTWQRRWSTFFAEQRIGWQLELAAEKGIAFGNIDAIVEHIQQRLASHQPQPSLLHGDLWSGNCALGPDGPYIFDPACYWGDRECDLAMLPLHTEQPPQIYDGYQSVSPLPADFLERQPVYQLYTLLNRARLFGGQHLVIAQQSLDRLLAA | soluble
2 | MGHHHHHHSHPKQEKLLSLAGDSLFWSEADVVQATDDFNQNRKISQGTFADVYRGHRHGKPFVFKKLRETACSSPGSIERFFQAELQICLRCCHPNVLPVLGFCAARQFHSFIYPYMANGSLQDRLQGQGGSDPLPWPQRVSICSGLLCAVEYLHGLEIIHSNVKSSNVLLDQNLTPKLAHPMAHLCPVNKRSKYTMMKTHLLRTSAAYLPEDFIRVGQLTKRVDIFSCGIVLAEVLTGIPAMDNNRSPVYLKDLLLSDIPSSTASLCSRKTGVENVMAKEICQKYLEKGAGRLPEDCAEALATAACLCLRRRNTSLQEVCGSVAAVEERLRGRETLL | not soluble
3 | MGHHHHHHSHPPEKHLGIYSVLPNHKADAVLSMPSSVTSGLHVQPALAVSMDFSTYGGLLPQGFIQRELFSKLGELAVGMKSESRTIGEQCSVCGVELPDNEAVEQHRKLHSGMKTYGCELCGKRFLDSLRLRMHLLAHSAGAKAFVCDQCGAQFSKEDALETHRQTHTGTD | soluble
4 | MGHHHHHHSHRASRKICFVCKKKGAAINCQKDQCLRNFHLPCGQERGCLSQFFGEYKSFCDKHRPTQNIQHGHVGEESCILCCEDLSQQSVENIQSPCCSQAIYHRKCIQKYAHTSAKHFFKCPQCNNRKEFPQEMLRMGIHIPDR | not soluble
5 | MGIDYNRWWHLKDETLGEELKGYIKMIEEDYLVYSGTTSQLHVSKLSNGSVNSIVNEILEQQGSWSIIYYNQKLKKLFIGRDVFGRQSLVFNFESMIFGCRTKPETSGKWIEIPFGQVTVFSLDSTDPVIYSYLDEYPENVLDGYFSGSDISRIVVNKKHGLLNVSRSTGGEIDSFNTKDLFQKVIDATKILLKNYHESHVAVCLSGGVDSTFVAHVVHSSVPENMQIDLINVAFGNSEKECEQAPDRKRARKALESFRTAYPTRQFRLILVNVDSQTLEVNRKESISDAAQPASSVLDDSLSCVLWFAVRAEGVDSENQQSVRSPATTCLLGSGADELLAGYARHRTRFEKEQIPENVAEECENELRRLGSRNGGRDARVAAQLGKTILSPLLEDTVVTWLNALPVDSKWDLSLPRGVGEKQLLRETVKMLGSPYDAPKQAMQFGSRMAKMSNAGDNSIKGSDKSPHLLKTDVN | not soluble
6 | MGIFSRFADIVNSNVTSLLDKAENPEKMIRLIIQEMEDTLVEVRTASAKALADKKELTRKISSIEAQVADWQDKASLALLKQREDLARSALIEKQKVQDILSSLKTEFILVEESIEKLSAELIELETKLTETRARQQALVIRQQTAQHRNDIKSHTHSGKTERAMAKFEQYERRIDELDAKADSYSIGKANSLEQEFAELQAQDEIDKEIERLKEQMKKDALEHHHHHH | not soluble
7 | MGIHFVDKADLWKSALLFNLKLRDRFRIAVDDHRGRATDLTAEEESALFRMLQTVAVPLIGNACHVFMNGFNRVQVYGLEKLHDALLNRPKNKPLVTVSNHVASVDDPFVIASLLPPKFLLDARNLRWTLCATDRCFKNPVTSAFSRSVKVLPISRGEGIYQQGMDIAISKLNNGGWVHIFPEGSRSRDGGKTMGSAKRGIGRLILDADTLPMVVPFVHTGMQDIMPVGASVPRIGKTVTVIIGDPIHFNDILSTEGAQHVSRKHLYDAVSSRIGQRLYDLKAQVDRVYIEQQSMMSHNAKTPSDRAAEIFHRVDWDSFGMGAQFSEESSPSSKPIGQSDDRIVRSPKRRVSPEGGVSLKIKKLMDSTEMMGFAARGLLMNEYKSRVESANVGRPLKAWREYFMNRGL | soluble
8 | MGIKTQKNFICLKRTFSMNLRDAISVANPVQLEEEIKHDEVVSFLKSKNLLDKPVILNVEGKKVAKNFVSSRETLGKYLGVDAYSIARELSKIEDREAEIRVEPFSSLAMKKVDVNLQELPVIKYFPRDGGRYITAGIVIAQRNGVYNASIHRMLLLDESRVAARLVPPRHTYLMWREAVEREEELEVAVVIGTHPLFLFASATRVPSGKEFSYAAGLMGRLTLYRKGEMLVPDSEIILFGRITAETAKEGPFVDITGTYDIVRDEPVIVFDEMYVKEDYIYYSITPAGKEHQMLMGVPYEPVIYRFVSNVCKVKNVITTPGSCHYFHCVVQIEKKSEGDGKNAIIAALAANPSMKGVVVVDDDIDILSYEDMEFAIATRFQPDRDLVVVKGARGSSLDPSADKTTSKWGIDATKPLGKEGFDRVVLEHHHHHH | not soluble
9 | MGIPILKLGECLLISIQSELDDHTAVEFQEDLLAKIHETSARGVVIDITSIDFIDSFIAKILGDVVSMSKLMGAKVVVTGIQPAVAITLIELGITFSGVLSAMDLESGLEKLKQELGE | not soluble
10 | MGIRPVNRKRLSMDKVFIEQLEVITTIGVYDWEQQIKQKLVLDLEMAHDNRAAGKSDDVADALDYAQVSQAVLEHIEQGRFLLVERVAEEVAELIMTRFAVPWLRIRLTKPGAVPQAKGVGVIIERARG | not soluble
11 | MGKDSKKHKKERRRERSPSTSDSDEERLQKRLAEQRSLKKDEKRRQKEEMKKNESAEEKRARRMEKKMRKDAKRKDADAEDTLIPPELNYTNLNNPFNDTKLTQTFVWGKKLEREGKSGLTQDEITKQTSQRIRKNLHEAAEFKRIRDSRAAAKEDMEMMKRDADLRAGQISDTKEREFQMDQIKERTRIRIDQGRAKAIDLLSRYARFADENPHTAKIPDFELENPMEYLKASCKSVDDYEDLIEDIKTYREVDGWAKNETWWMDVTRIAEDEIQKKAAQNRGDVHASVQTEVQNMFKNKSIDELLKLEDQMDAKIRGNSGNKGYWQDLDDQLKVFIARKRLREHHGRVLRLQLAIIKEEQKKEIQQQESEELLPVAEVPPQVKIQKEEEEEEEEDEDDEKISKKVRRKIDVQTLDDPELDEPERERKWRALTGDQLDDVTRELYRIGCYRFSIFFLAEKPPTYISADDTMPGIEILDEQADVDNLTERRNRNRGTLPSSSAASSGAPQGASSKMMAIAREGMEADESIFGAEEQLAAQRHLWSDKYRPRKPTYLNRVQTGFDWNKYNQTHYDQDNPPPKIVQGYKFNIFYPDLLDMTVAPRFGLTSCEDPDFAIIRFKAGPPYEDIAFKVVNREWETLHKNGYKCQFQNGVFQLWFMFKKYRYRR | soluble
12 | MGKGDPNKPRGKMSSYAFFVQTCREEHKKKHPDSSVNFAEFSKKCSERWKTMSAKEKSKFEDLAKSDKARYDREMKNYVPPKGDKKGKKKDPNAPKRPPSAFFLFCSEHRPKIKSEHPGLSIGDTAKKLGEMWSEQSAKDKQPYEQKAAKLKEKYEKDIAAYRAKGKSEVGKKGPGRPTGSKKKNEPEDEEEEEEEEDDEDEEEEDEDEE | soluble
13 | MGKIQARIPDEVQEVASAVIKSTGLTVSDAVRMFMTRIARDRALPLDLFQPNLETLQAIEDAEMGRVERTSLDGLRAMIRDDKAEVCKSAK | not soluble
14 | MGKKKFIENEDGTTEVQETESEAPKDKKEKKEYRLRTLGANIKTSKKSFKEQFFMNYEDGLKLIKKMRGKGKGGQLVQKVMPRHISLPYHMSGKAAMEEACDWIAQNTVGKYRKEYKGIVVAVGSVDLASAPRVISDQYAFHTDVAINQIVFIPKIGDQYEAKVKYVQEGLMVGVVMDMITIHIKQNDKTSEDQVAIDDKILVKYSGIRIKSSLCHLKGEYVKMIEKAEIKEEEEVEDEADEETDVKEKVKEEEDEDEDMEE | not soluble
15 | MGKKKNKKTEVQQPDPMRKNWIMENMDSGVIYLLESWLKAKSQETGKEISDIFANAVEFNIVLKDWGKEKLEETNTEYQNQQRKLRKTYIEYYDREMK | soluble
16 | MGKKKVKFLQKEELRTLLQSLDLQSGINNDWFLLLIAKTGMRYAEALALTPSDFDWVNATVTIDKSWDYKTHRGFKKTKSTASDREIAIDWQIVGQFKPLIQDLPANDPIFIEKTERGTYKKQYNSTMNNYLEAKCKTLTITVISLHALRHTHASVLLAEGVSIHTISARLGHADVGVTQEIYAHVLDELQKKDDQKMMSVLMQIALEHHHHHH | not soluble
17 | MGKKRKITDEKDAQHVPAEKREKVENWLKKSTEKPTSSQSDAEKKKKRPWRNKVRKLAAKKAAADKKSENPEEPPLILEPKSSSDENTKKKRKRGPKKKKFKPEVAGKAAETENDDVAAAPEEADPIAEAKKRLDAGRFRFLNEKLYTCTGSEAFDFFKEDPTAFDLYHKGFADQVKKWPNHPLREIIRWLQSKPDQQSVFDLGCGEAKIAEAVGEKHKIRSFDLVAVNDRVESCDMSKLPAEDSSADIVIYCLSLMGTNLYDFIREARRVLKIGGILKIAEVTSRFVSIKQFCEAITKMGFEQSHRRELTDYFMMMEFKKVEKVEQKRPYGLKLKPCLYKKR | soluble
18 | MGKKVVVIGAGPGGIMAAGKAAERGHNVTLFEKNDRIGKKILISGKGRCNITNNTDIEGLIENIPGNGNFLYSAFYTFSNHDLIEFFEQYGLKTKVERGGRVFPVSDDAKDVNNALLKFLNKAKVNLRLNSPVQEIKAKNNTVTGVVLKDGTEVPCDAVVLATGGASYPGTGSTGDGYVMAKKLGHTIVDLKPSLVPLLAEEEWVKELQGLSLKNVSITILSKAGKKIYTDFGEMLFTHFGVSGPIILSASRHILDYDYKNVKLVIDLKPALSEEKLDERILRDFEKYSRKQYKNSLDDLLPKKMIPVIVKLSGIEPEKFVNQIKKEERRALVRLLKNLTLNINGSRPIKEAIVTAGGVSTDEINPSTMESKLVKGLYFAGEIIDVDGYTGGFNLTIAFSTGYLAGVSC | soluble
19 | MGKNKTAYVCQECGYKSVKWLGKCPSCGEWNTLVEEFEPQSFSLVKKEPSLVLPVTDWEKEEHERETTGFESLDNALGGGLVKGQVILIAGEPGIGKSTLLLQISDRVANGKKVLYVSGEESGTQIALRAKRLGINNENLLVYPEVNLEKILQTLEKEKPSLLVLDSVQTIFSERLESSAGSVSQVREVTYRITEFCKEKNVPAFIVGQITKEGSIAGPKVLEHIVDTVLQFEGERFNFYRIVKVIKNRFGSTGEIAVFKMTDKGLEEVPEPSAFFISEKANAPGSVVFPHTEGSKPVLLEVQALVIPALYTTPQRRTQGFDPNRLALILAVLEKEAKIFTRDQDVFVNVAGGMSVKEPAADLAVAMAVVSSKKEKEVPKDFVIFGEVGLSGEIRAVHFGDLRLKEAKRFGFKKALIPKSLEIEIDGMEIYPVSHIQEAIEVLF | soluble
20 | MGKQLAKKITWAIENFSSLHSKKIYSDPFIVGGCKWRFLVYPKGNNVDYLFLYLEVADYESLSPEWRRHARYLLNVVNQNSVKRSKQNEEQKWFDVQSPRWGRLSMFPLNEINAKDSGFLVNGELKIVAEIEVLEVIGKLDVSEETSTIMESMDFNGFQLLPSQVDFVRHMFEKHPEIASEFRLKNPNLRAGYMSLLLSLIETLRQSPQELNKVDLAEGYVALRSITDAGFKVDWLEKKLVEISEKKNKEEAGETRMQEINEELESLKQKCLDLEAQLEKEKAEVFAAKSPLSFNDVF | not soluble
21 | MGKQRECLVIVEGYDPYVVKVSHDATSYSDYKTGRELPFTIIRMNGFSDSEGVYCCIASDKSMEDHTDEARALLKAYKVKPL | not soluble
22 | MGKSDFLSPKAIANRIKSKGLQKLRWYCQMCQKQCRDENGFKCHCMSESHQRQLLLASENPQQFMDYFSEEFRNDFLELLRRRFGTKRVHNNIVYNEYISHREHIHMNATQWETLTDFTKWLGREGLCKVDETPKGWYIQYIDRDPETIRRQLELEKKKKQDLDDEEKTAKFIEEQVRRGLEGKEQETPVFTELS | soluble
23 | MGKSIPVKTGLRGASAAVAGFIKSSKPIRPISSMDSSDKDSSSTTTTSETTRRFVPLSSVVSDCAKRWFKDTLEEAKAGNITMQVLLGQMYYSGYGVPKDARKVSSLFPPFQSLLFQVLGYNASDSDSESD | not soluble
